Measured values as given in US20030166027A1, “Compositions, test kits and methods for detecting helicobacter pylori” (priority 2002, published 2003).

Tests used:
[1] = test system: specific serum IgG antibodies in sera from patients diagnosed with a H. pylori infection; experiment: Quantitative Western-blot analysis (integrated optical density) of patient sera on H. pylori whole cell lysate antigens; format: binding, human; settings: for average titer of specific antibodies / reduction of average titer: average of all strains (FIG. 4)
[2] = test system: sera from H. pylori infected patients; experiment: Immunoblot analysis of whole cell lysates with sera from H. pylori infected patients; format: binding, human; settings: one serum of an infected patient (HS#0 12, table 1)
Procedure: The protein content of the bacterial lysates was determined by the method according to Lowry (Lowry et al., 1951) with bovine serum albumin as a standard. The lysates were dried in a speedVac concentrator. Afterwards the pellets were suspended in gel sample buffer (4% SDS, 12% glycerin, 4% β-mercaptoethanol, 0.01% Serva Blue G250 in 50 mM Tris/HCl pH 6.8) and boiled for 10 min. H. pylori and C. jejuni lysates were separated on 1.0 or 1.5 mm 7.5-16.5% SDS-tricine gradient gels (Schaegger and v. Jagow, 1987). Therefore a 7.5% and a 16.5% acrylamide solution for the separating gel and a 4% acrylamide solution for the stacking gel were prepared according to the scheme presented in table 3. Using a gradient-mixer the gel was poured slowly, but with continuous flow between the glass plates of the gel-sandwich. The separating gel was overlaid with deonized H2O and allowed to polymerize for 1 hr. Afterwards the water was removed, APS and TEMED was added to the stacking gel solution that was poured on top of the separating gel. A comb with the appropriate number of sample pockets was inserted and removed after polymerisation for 1 hr. The gel-sandwich was placed in an electrophoresis chamber half filled with bottom running buffer (0.2 M Tris-HCI, pH 8.9). […] The protein pattern after electrophoresis was determined by Silver staining (Heukeshoven, 1985) or Coomassie blue staining. […]

[3] = antigens from Hp02 (FIG. 3), sera 3 months post therapy
[4] = antigens from Hp02 (FIG. 3), sera 5 months post therapy
[5] = antigens from Hp02 (FIG. 3), sera before therapy, set as 100%
[6] = antigens from Hp08 (FIG. 2), sera 3 months post therapy
[7] = antigens from Hp08 (FIG. 2), sera 5 months post therapy
[8] = antigens from Hp08 (FIG. 2), sera before therapy, set as 100%
[9] = antigens from Hp504, first experiment (FIG. 1A), sera 3 months post therapy
[10] = antigens from Hp504, first experiment (FIG. 1A), sera 5 months post therapy
[11] = antigens from Hp504, first experiment (FIG. 1A), sera of 9 patients before therapy, set as 100%
[12] = antigens from Hp504, second experiment (FIG. 1B), sera 3 months post therapy
[13] = antigens from Hp504, second experiment (FIG. 1B), sera 5 months post therapy
[14] = antigens from Hp504, second experiment (FIG. 1B), sera before therapy, set as 100%
[15] = 3 months after eradication treatment
[16] = 5 months after end of treatment

B1: HpaA-neuraminyl-lactose-hemagglutinin precursor (protein)
chain: MKKGSLAIVLGSLLASGAFYTALADGMPAKQQHNNTGESVELHFHYPIKGKQEPKNSHLVVLIEPKIEINKVIPESYQKEFEKSLFLQLSSFLERKGYSVSQFKDASEIPQDIKEKALLVLRMDGNVAILEDIVEESDALSEEKVIDMSSGYLNLNFVEPKSEDIIHSFGIDVSKIKAVIERVELRRTNSGGFVPKTFVHRIKETDHDQAIRKIMNQAYHKVMVHITKELSKKHMEHYEKVSSEMKKRK
notes: 32 kd H. pylori antigen band in whole cell lysate, identified as HpaA
% IOD [1, 3]: 32.30 +/− 13.97%
% IOD [1, 4]: 8.70 +/− 3.2%
% IOD [1, 5]: 100%
% IOD [1, 6]: 48.11 +/− 8.15%
% IOD [1, 7]: 21.06 +/− 8.01%
% IOD [1, 8]: 100%
% IOD [1, 9]: 41.61 +/− 9.25%
% IOD [1, 10]: 15.15 +/− 4.20%
% IOD [1, 11]: 100%
% IOD [1, 12]: 32.15%
% IOD [1, 13]: 27.2%
% IOD [1, 14]: 100%
average titer of specific antibodies [1, 15]: 38.5%
reduction of average titer [1, 15]: 61.5%
average titer of specific antibodies [1, 16]: 18.03%
reduction of average titer [1, 16]: 81.97%

B2: HP0596 a hypothetical protein (protein)
chain: MLEKSFLKSKQLFLCGLGVLMLQACTCPNTSQRNSFLQDVPYWMLQNRSEYITQGVDSSHIVDGKKTEEIEKIATKRATIRVAQNIVHKLKEAYLSKTNRIKQKITNEMFIQMTQPIYDSLMNVDRLGIYINPNNEEVFALVRARGFDKDALSEGLHKMSLDNQAVSILVAKVEEIFKDSVNYGDVKVPIAM
notes: 23 kd H. pylori antigen band in whole cell lysate, identified as HP0596
% IOD [1, 3]: 35.86 +/− 11.88%
% IOD [1, 4]: 13.51 +/− 5.02%
% IOD [1, 5]: 100%
% IOD [1, 6]: 23.05 +/− 7.53%
% IOD [1, 7]: 11.36 +/− 4.45%
% IOD [1, 8]: 100%
% IOD [1, 9]: 33.88 +/− 10.59%
% IOD [1, 10]: 23.81 +/− 7.83%
% IOD [1, 11]: 100%
% IOD [1, 12]: 52.37 +/− 12.72%
% IOD [1, 13]: 34.77 +/− 9.61%
% IOD [1, 14]: 100%
average titer of specific antibodies [1, 15]: 36.29%
reduction of average titer [1, 15]: 63.71%
average titer of specific antibodies [1, 16]: 28.87%
reduction of average titer [1, 16]: 79.13%

B3: RPL7/L12 50S ribosomal protein L7/L12 (protein)
chain: MNISVNPYLMAVVFVVFVLLLWAMNVWVYRPLLAFMDNRQAEIKDSLAKIKTDNAQSVEIGHQIEALLKEAAEKRREIIAEAIQKATESYDAVIKQKENELNQEFEAFAKQLQNEKQALKEQLQAQMPVFEDELNKRVAMGLGS
notes: 15 kd H. pylori antigen band in whole cell lysate, identified as RPL7/L12
% IOD [1, 3]: 36.29 +/− 14.99%
% IOD [1, 4]: 11.39 +/− 4.27%
% IOD [1, 5]: 100%
% IOD [1, 6]: 28.60 +/− 13.85%
% IOD [1, 7]: 9.96 +/− 4.99%
% IOD [1, 8]: 100%
% IOD [1, 9]: 37.86 +/− 8.98%
% IOD [1, 10]: 15.37 +/− 6.68%
% IOD [1, 11]: 100%
% IOD [1, 12]: 46.17 +/− 16.87%
% IOD [1, 13]: 19.77 +/− 11.11%
% IOD [1, 14]: 100%
average titer of specific antibodies [1, 15]: 31.61%
reduction of average titer [1, 15]: 68.39%
average titer of specific antibodies [1, 16]: 14.12%
reduction of average titer [1, 16]: 85.88%
reaction with serum HS#0 12 [2]: did not react

B4: Omp18-peptido-glycan associated lipoprotein precursor (protein)
chain: MKRSSVFSFLVAFLLVAGCSHKMDNKTVAGDVSAKTVQTAPVTTEPAPEKEEPKQEPAPVVEEKPAVESGTIIASIYFDFDKYEIKESDQETLDEIVQKAKENHMQVLLEGNTDEFGSSEYNQALGVKRTLSVKNALVIKGVEKDMIKTISFGETKPKCAQKTRECYKENRRVDVKLMK
notes: 30 kd H. pylori antigen band in whole cell lysate, identified as Omp18
% IOD [1, 3]: 50.71 +/− 11.48%
% IOD [1, 4]: 21.56 +/− 6.44%
% IOD [1, 5]: 100%
% IOD [1, 6]: 62.53 +/− 10.32%
% IOD [1, 7]: 40.77 +/− 4.45%
% IOD [1, 8]: 100%
% IOD [1, 9]: 32.08 +/− 6.48%
% IOD [1, 10]: 20.71 +/− 12.72%
% IOD [1, 11]: 100%
% IOD [1, 12]: 53.58%
% IOD [1, 13]: 41.28%
% IOD [1, 14]: 100%
average titer of specific antibodies [1, 15]: 49.73%
reduction of average titer [1, 15]: 50.27%
average titer of specific antibodies [1, 16]: 31.08%
reduction of average titer [1, 16]: 68.92%
